{"source": "patent US9803013B2", "about": "“Biological materials and uses thereof” (BioInvent International AB, priority 2005, dated 2017)", "molecules": {"B1": {"name": "B11: fully human IgG1 antibody specific for ICAM-1; VH and VL sequences of FIG. 10 (SEQ ID NOs. 6 and 8) (antibody, listed as Homo sapiens, V domains shown)", "VH": "EVQLLESGGGLVQPGGSLRLSCAASGFTFSNAWMSWVRQAPGKGLEWVAFIWYDGSNKYYADSVKGRFTISRDNSKNTLYLQMNSLRAEDTAVYYCARYSGWYFDYWGQGTLVTVSS", "VL": "QSVLTQPPSASGTPGQRVTISCTGSSSNIGAGYDVHWYQQLPGTAPKLLIYDNNNRPSGVPDRFSGSKSGTSASLAISGLRSEDEADYYCQSYDSSLSAWLFGGGTKLTVLG"}}, "key": {"BxPC-3": {"test_system": "BxPC-3", "assay": "IgG binding to carcinoma cell line, flow cytometry MFI", "design": "species or system human", "settings": "BxPC-3, Pancreatic carcinoma", "text": "(§1) The antigen distribution of human antibody targeted antigens, mainly for B11, on different carcinoma cell lines was investigated. Cells (MCF-7 and MDA MB 435S breast carcinoma, JAR and JEG-3 chorio-carcinoma, A549 lung carcinoma, TCC-SUP urinary bladder carcinoma, MDA MB 435 melanoma, HPAC, PANC-1 and BxPC-3 pancreatic carcinoma, PC-3 and DU145 prostate carcinoma, LS174 T, CaCo2, and Lovo colorectal carcinoma, and THP-1 monocytic leukaemia cells), were washed in PBS, and resuspended at 4×10^6 cells/ml in Complete Medium (200,000 cells/50 […] sample). […] Cells were incubated with either of the antibodies for 1 hour on ice, washed by resuspension in PBS/BSA 0.5%, centrifuged at 1200 rpm for 5 min, and complete aspiration of the supernatants was undertaken. Cells were incubated with PE-conjugated Goat F(ab′)2 anti-Human IgG (Caltag Laboratories, Cat no: H10104), diluted 1/50 in PBS/BSA 0.5%, for 30 min, on ice. Following resuspension of in 300 μl PBS/BSA 0.5%, cells were analysed for IgG binding using a FACScan instrument."}, "CaCo2": {"test_system": "CaCo2", "assay": "IgG binding to carcinoma cell line, flow cytometry MFI", "design": "species or system human", "settings": "CaCo2, Colon carcinoma", "text": "as §1"}, "DU145": {"test_system": "DU145", "assay": "IgG binding to carcinoma cell line, flow cytometry MFI", "design": "species or system human", "settings": "DU145, Prostate carcinoma", "text": "as §1"}, "JAR": {"test_system": "JAR", "assay": "IgG binding to carcinoma cell line, flow cytometry MFI", "design": "species or system human", "settings": "Chorio-carcinoma", "text": "as §1"}, "JEG-3": {"test_system": "JEG-3", "assay": "IgG binding to carcinoma cell line, flow cytometry MFI", "design": "species or system human", "settings": "JEG-3, Chorio-carcinoma", "text": "as §1"}, "Lovo": {"test_system": "Lovo", "assay": "IgG binding to carcinoma cell line, flow cytometry MFI", "design": "species or system human", "settings": "Colon carcinoma", "text": "as §1"}, "PC-3": {"test_system": "PC-3", "assay": "IgG binding to carcinoma cell line, flow cytometry MFI", "design": "species or system human", "text": "as §1"}, "TCC-SUP": {"test_system": "TCC-SUP", "assay": "IgG binding to carcinoma cell line, flow cytometry MFI", "design": "species or system human", "settings": "Urinary bladder carcinoma", "text": "as §1"}, "CL-01 B lymphoma cells": {"test_system": "CL-01 B lymphoma cells", "assay": "Mitochondrial membrane depolarisation assay (JC-1)", "format": "cell-based, human", "settings": "CL-01, JC-1 staining, 2 μg/ml IgG cross-linked, 6 h", "method": "FIG. 4A. […] Cells were incubated at 37° C. for 6 h and the effect of the antibody incubation was determined by two independent apoptosis assays. Cells were stained either by AV/PI (upper panel), similarly as described above, or by incubation with 5 μg/ml of the mitochondrial membrane depolarisation reagent JC-1 for 30 min at RT (lower panel). Induction of apoptosis is detectable by a decrease in the red (y-axis)/green (x-axis) fluorescence intensity ratio. (FIG. 4B) Histology section showing representative binding of B11 antibody to B lymphoma tissue. Cryo-preserved tissue obtained from a patient with Anaplastic Large Cell B Lymphoma was stained with B11 or FITC-8 (control) scFv antibody. Antibody binding was detected with DAB (brown colour). […] IgG B11 binding to the different cell populations was recorded in the FL4 channel.\nMitochondrial membrane depolarisation was analysed as previously described (Kim et al., Mol. Biol. Cell (2004) 15:420-434). […] Cells were washed twice in ice-cold PBS and resuspended in […] PBS and analysed on a FACS Aria (BD Biosciences). The green and red fluorescence was collected through 494/518 nm (FL-1) and 595/615 nm (FL-2) bandpass filters, respectively. […]"}, "RPMI-8226 cells": {"test_system": "RPMI-8226 cells", "assay": "Macrophage ADCP", "format": "cell-based", "settings": "RPMI-8226, human macrophages", "method": "(§2) Cultured macrophages were detached and plated in flat 96-well plates at 50 000 cells/well and placed in 37° C. CFSE-stained target cells were incubated with antibodies for up to 1 hr on ice. After washing, the different cell solutions were added to the culture plates containing macrophages at a ratio of 5:1 (Target cells:Macrophages). Thereafter, the culture plates were incubated at 37° C. for 1-2 hr (primary patient MM cells) or 16 hr (RPMI-8226 cells). The percentage of macrophages that had phagocytosed tumor cells (CFSE^+, CD206^+) per total analyzed macrophages was determined following gating and acquisition of 5000 CD206^+ cells/sample.\n(§3) Buffy coats from healthy human donors were ordered through the local blood central at Lund University Hospital and Halmstad Hospital. Peripheral blood mononuclear cells (PBMCs) were first extracted using Ficoll-Paque PLUS (GE Healthcare Life Sciences), followed by isolation of monocytes with CD14 MicroBeads and MACS separation (Miltenyi Biotec). The monocytes were cultured in RPMI 1640 medium with 10% heat-inactivated FBS (Invitrogen) and 25 ng/mL of recombinant human M-CSF (R&D Systems) for 6-14 days, causing differentiation into macrophages. Medium with M-CSF was changed every 2-3 days upon initiation of cultures.\n(§4) RPMI-8226 cells (ATCC) were continuously cultured in RPMI 1640 medium supplemented with 10 mM HEPES, 1 mM sodium pyruvate and 10% FBS. For multiple myeloma cells, freshly isolated bone marrow samples were donated by patients at Lund University Hospital and subsequently processed with Ficoll-Paque PLUS. Negative isolation of malignant plasma cells was then performed using the Plasma Cell Isolation Kit II according to the manufacturer's instructions (Miltenyi Biotec).\n(§5) At least 4 h before co-culture with target cells the cultured macrophages were detached with Accutase (Sigma Aldrich), before plated in flat 96-well plates at 50 000 cells/well and placed in 37° C. […] After washing, the different cell solutions were added to the culture plates containing macrophages at a ratio of 5:1 (Target cells:Macrophages). Thereafter, the culture plates were incubated at 37° C. for 1-2 hr (primary patient MM cells) or 16 hr (RPMI-8226 cells). Next, samples were stained with APC-conjugated anti-CD206 antibody (BD Biosciences), before harvested by scraping the culture plate wells. The resulting cell solutions were then analyzed by flow cytometry, where CD206^+ macrophages were gated and acquired at 5000 cells/sample. A cut-off level identifying CFSE^+, CD206^+ double positive (phagocytic) macrophages was set for each experimental sample series. This level differed between the individual assays since the magnitude of basic (unstimulated) phagocytosis varied (different donors and time-points) among the experiments."}, "[1]": {"test_system": "primary patient's MM cells", "assay": "Macrophage ADCP", "format": "cell-based", "settings": "human macrophages", "method": "as §2, §3, §4, §5"}}, "data": [{"molecule": "B1", "values": [{"measurement": "MFI", "setting": "BxPC-3", "value": 2000}, {"measurement": "MFI", "setting": "CaCo2", "value": 800}, {"measurement": "MFI", "setting": "DU145", "value": 2200}, {"measurement": "MFI", "setting": "JAR", "value": 2000}, {"measurement": "MFI", "setting": "JEG-3", "value": 1600}, {"measurement": "MFI", "setting": "Lovo", "value": 1600}, {"measurement": "MFI", "setting": "PC-3; PC-3, Prostate carcinoma", "value": 1500}, {"measurement": "binding", "setting": "PC-3; PC-3 prostate carcinoma cells", "value": "strong binding"}, {"measurement": "MFI", "setting": "TCC-SUP", "value": 3200}, {"measurement": "mitochondrial membrane depolarisation", "setting": "CL-01 B lymphoma cells", "value": "induce mitochondrial membrane depolarisation"}, {"measurement": "ADCP", "setting": "RPMI-8226 cells", "value": "conferred ADCP"}, {"measurement": "ADCP", "setting": "[1]", "value": "conferred ADCP"}]}]}
